Laboratory results published in US11732029B2, “Methods and compositions for the treatment of wounds” (The University of Chicago, priority 2017, dated 2023).

Columns and labels:
human lung fibroblasts = assay: Cell proliferation assay with vWF HBD, fibroblasts; format: cell-based; settings: vWF HBD coated plates, 72 hrs, in the presence of FGF-2
Description: Cell proliferation assays were performed as previously reported1. Briefly, human lung fibroblasts (Lonza) were cultured using FGM-2 medium (Lonza) (1000 cells/well) or human umbilical vein endothelial cells (HUVEC, Lonza) were cultured using EGM-2 medium (Lonza) (1000 cells/well) on 1 μg/mL vWF HBD pre-coated 96-well plates (Tissue culture treated, Falcon). Cell numbers were quantified after 72 hrs using a CyQUANT assay (Invitrogen).

FGF-2 = FGF-2 (Homo sapiens, UniProt P09038); assay: Recombinant GF binding to the vWF recombinant protein and A1 HBD peptide (ELISA); set-up: All growth factors (GFs) and chemokines were purchased in their mature forms; purchased PeproTech; host or cells: Escherichia coli; settings: plate coated with vWF protein, A1 domain or HBD peptide, 1 μg/mL GF
Description: (§1) ELISA tests were performed as described above. In brief, ELISA plates were coated with 1 μg/mL of FL-vWF (WT or R1341Q), 1 μg/mL of vWF A1 recombinant protein (U-Protein Express) or 1 μg/mL of vWF A1 HBD peptide (sequence […], (SEQ ID NO:50) chemically synthesized by Genscript) at 37° C. overnight. After blocking with 2% BSA solution containing PBS-T, 1 μg/mL of the recombinant human proteins VEGF-A121, VEGF-A165, PlGF-1, PlGF-2, PDGF-BB, FGF-2, CXCL-12α and CXCL-12γ were added. 1 μg/mL of BSA served as non-binding protein control. Bound GF or chemokine was detected with biotinylated antibodies for human VEGF-A, PlGF, PDGF-BB, FGF-2, or CXCL-12 (R & D Systems). The antibodies were detected by streptavidin-HRP (R & D Systems). Color development and the absorbance measurement were done as described above.

PlGF-2 = molecular target: T1, PlGF-2 (Homo sapiens, UniProt P49763); assay: as above; set-up: All growth factors (GFs) and chemokines were purchased in their mature forms; purchased PeproTech; host or cells: Escherichia coli; settings: plate coated with vWF protein, A1 domain or HBD peptide, 1 μg/mL GF
T1 sequence (P49763 19-170 isoform P49763-3 limits assumed): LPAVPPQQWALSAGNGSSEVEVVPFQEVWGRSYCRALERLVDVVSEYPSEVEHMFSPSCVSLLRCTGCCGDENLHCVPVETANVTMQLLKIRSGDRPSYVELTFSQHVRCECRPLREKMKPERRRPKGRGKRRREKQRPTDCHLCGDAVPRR
Description: as §1

VEGF-A121 = molecular target: T2, VEGF-A121 (Homo sapiens, UniProt P15692); assay: as above; set-up: All growth factors (GFs) and chemokines were purchased in their mature forms; purchased PeproTech; host or cells: Escherichia coli; settings: plate coated with vWF protein, A1 domain or HBD peptide, 1 μg/mL GF
T2 sequence (P15692 27-147 isoform P15692-9 limits assumed): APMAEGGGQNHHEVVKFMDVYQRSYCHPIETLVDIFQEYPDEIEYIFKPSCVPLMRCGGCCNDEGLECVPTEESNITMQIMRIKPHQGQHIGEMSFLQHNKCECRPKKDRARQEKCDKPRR
Description: as §1

Sequence of FGF-2 (P09038 143-288): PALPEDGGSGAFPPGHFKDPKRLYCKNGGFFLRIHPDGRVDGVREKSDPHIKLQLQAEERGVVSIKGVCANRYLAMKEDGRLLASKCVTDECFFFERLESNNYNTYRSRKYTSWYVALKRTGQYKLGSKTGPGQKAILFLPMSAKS

YIGLKDRKRPSELRRIASQVKYAC [vWF HBD]
fibroblast proliferation (human lung fibroblasts): did not significantly affect fibroblast proliferation | binding to FGF-2 (FGF-2): showed binding | binding to PlGF-2 (PlGF-2): showed binding | binding to VEGF-A121 (VEGF-A121): neither VEGF-A121 nor PlGF-1 were able to bind
